Measurements taken from PMC2935283, “Molecular recognition between Escherichia coli enolase and ribonuclease E” (Acta Crystallographica Section D: Biological Crystallography, 2010).

Target: the molecule itself
Test: native MS; enolase mixed with the microdomain in a 1:1.5 molar ratio, room temperature, 20 min; nanoflow ESI, tandem nondissociating QTOF-MS/MS

B1: Escherichia coli enolase (enzyme, E. coli)
chain: MSKIVKIIGREIIDSRGNPTVEAEVHLEGGFVGMAAAPSGASTGSREALELRDGDKSRFLGKGVTKAVAAVNGPIAQALIGKDAKDQAGIDKIMIDLDGTENKSKFGANAILAVSLANAKAAAAAKGMPLYEHIAELNGTPGKYSMPVPMMNIINGGEHADNNVDIQEFMIQPVGAKTVKEAIRMGSEVFHHLAKVLKAKGMNTAVGDEGGYAPNLGSNAEALAVIAEAVKAAGYELGKDITLAMDCAASEFYKDGKYVLAGEGNKAFTSEEFTHFLEELTKQYPIVSIEDGLDESDWDGFAYQTKVLGDKIQLVGDDLFVTNTKILKEGIEKGIANSILIKFNQIGSLTETLAAIKMAKDAGYTAVISHRSGETEDATIADLAVGTAAGQIKTGSMSRSDRVAKYNQLIRIEEALGEKAPYNGRKEIKGQA
notes: enolase (EC 4.2.1.11), E. coli; overexpressed from pET11a; Purified as described in Kuhnel & Luisi, 2001; Homodimer in the crystal and by nondissociating mass spectrometry; also called enolase dimer; dimeric enolase; source: E. coli BL21 (DE3), pET11a vector, purified
- stoichiometry N: 2
